B1: PA13R3-P1C4: phage-derived chimeric anti-CB1 IgG; HC variable SEQ ID NO: 2, LC variable SEQ ID NO: 6 (antibody, V domains shown)
VH: EVQLQQSGAELVRPGVSVKISCKASGYEFSYYWMNWVKQRPGQGLEWIGQIYPGDGETKYNGKFKGKATLTADKSSNTAYMQLSSLTSEDSAVYFCARSHGNYLPYWGQGTLVTVSA
VL: DIVLTQSPAIMSASLGERVTMTCTASSSVSSSYLHWYQQKPGSSPKLWIYSTSNLASGVPARFSGSGSGTSYSLTISSMEAEDAATYYCHQYHRSPPTFGAGTKLELK
modifications: PA13R3-P1C4 Heavy chain variable region; PA13R3-P1C4 Light chain variable region
B2: PA13R3-P1C4 Fab: Fab fragment of chimeric PA13R3-P1C4 (antibody, V domains shown)
VH: B1 VH
VL: B1 VL
B3: 36E12B6C2: hybridoma-derived anti-CB1 mAb; HC variable SEQ ID NO: 18, LC variable SEQ ID NO: 22 (antibody, listed as Mus sp., V domains shown)
VH: QVQLQQSGAELVRPGSSVKISCKASGYEFSYYWMNWVKQRPGQGLQWIGQIYPGDGDTNYNGKFKGKATLTADKSSSTAYMHLTSLTSEDSAVYFCARSGGNPFAFWGQGTLVTVSA
VL: DIQMTQTSSSLSASLGDRVTFSCRASQDISNYLNWYQQKPDGTVKLLIYYTSRLHSGVTSRFRGSGSGTDYSLTISNLEQEDVATYFCQQGHTLPWSFGGGTKLEIK

Columns and labels:
[1] = target: T1, Native human CB1 TRex CHO A156 (Homo sapiens, UniProt P21554); assay: Flow cytometry (FACS) binding to native human CB1 cells
T1 construct: pcDNA4/TO native full length human CB1 receptor construct was transfected into tetracycline inducible system Trex-CHO cells; expressed in transfected cells
Protocol: (§1) TRex CHO parental cells, TRex CHO A56 over-expressed CB1 (CB1 T210A/fusion partner), and Native human CB1 TRex CHO A156 were harvested from flasks. 100 μl of 1×10^6 cells/ml of cells were incubated with primary antibody IgGs. Secondary Antibody PE conjugated anti-human and anti-mouse was diluted in 1:200 folds. Anti-Human Fab FITC was diluted in 1:32 folds. Cells were washed with 200 μl of FACS buffer twice and transferred to BD 5 ml Falcon tube and analyzed by flow cytometry. Binding of purified IgG was initially tested at concentrations of 30 nM and 300 nM.
(§2) To further assess TRex CHO parental cells, TRex CHO A56 overexpressed CB1, Native human CB1 TRex CHO A156, 5HT2B, Mouse CB1 and human CB2 were used to examine the specificity of IgG binding. 100 μl of 1×10^6 cells/ml of cells were incubated with primary antibody IgGs in 3-fold serial dilutions starting from 1 μM to 0.5 nM for 30 minutes on ice. After being washed with 200 μl of FACS buffer twice, cells were incubated with secondary antibody for 30 minutes on ice. Cells were washed with 200 μl of FACS buffer twice and transferred to BD Falcon 5 ml tube and analyzed by FACS.
(§3) For selected binders, full binding curves were generated on CB1 receptor by testing a range of concentrations. Three-fold serial dilutions from 1 μM to […] were prepared. Selectivity was determined by measuring binding to cells expressing 5HT2B or CB2, relative to binding to A156 (native human CB1 receptor expressing) or A56 (overexpressed—CB1 receptor with the T210A modification and ICL3 replacement with fusion partner) by flow cytometry. […]
(§4) The binding affinity, cross-reactivity and specificity of humanized P1C4 antibodies were determined by flow cytometry with TRex CHO parental cells, TRex CHO A56 overexpressed CB1 cells (T210A/fusion partner), native human CB1 TRex CHO A156 cells, Trex parental (no CB1) cells, mouse CB1 cells, and human CB2 stable cells. […] Cells were washed with 200 μl of FACS buffer twice and transferred to BD Falcon 5 ml tube and analyzed by flow cytometry (BD FACScalibur).

[2] = target: A139 iCAPS (human CB1, ICL3 replaced with BRIL); assay: ELISA binding of IgG/Fab to CB1 iCAPS A139; settings: IgG and Fab ELISA, Table 8
Protocol: (§5) Purified IgG was tested for binding to purified CB1 receptor (CB1 Conformation Antigen Presenting System (iCAPS)) by ELISA. Non-biotinylated antigens (e.g. empty iCAPS) were coated directly on Maxisorp plates. The primary antibodies were purified IgGs with 1:3 serial dilutions, incubated on the plate for 1 hour. After 3 rounds of washing with PBST, secondary antibodies HRP goat anti-mouse IgG (Abmart) or HRP goat anti-human IgG (Sigma), depending on the species of the IgGs were added and incubated for another hour. The plates were washed three times with PBST, then developed with TMB (Biopanda). HCl was added to the plates to stop the reaction. Absorbance at 450 nm was read on Emax precision microplate reader (Molecular Devices).
(§6) IgG and Fab molecules tested were 36E12B6C2 IgG, 36E12B6C2 Fab, PA13R3-P1C4 IgG, and PA13R3-P1C4 Fab, compared to negative control BRIL binder P1F7 IgG and P1F7 Fab. For IgG antibodies, the secondary antibody used to detect binding was anti-mouse IgG-HRP; for Fabs, the secondary antibody used to detect binding was anti-human IgG-HRP.

[3] = target: T2, human CB2 (TRex CHO cells) (Homo sapiens, UniProt P34972); assay: Flow cytometry selectivity versus human CB2; type: binding
T2 construct: expressed in transfected cells
Protocol: as §2
Santa Cruz anti-CB1 rabbit polyclonal antibody and secondary antibody FITC conjugated anti-rabbit were used to detect the expression of mouse CB1. R&D mouse monoclonal anti-CB2 and human IgG P2C2 were used to confirm the expression of CB2 and 5HT2B respectively. Both anti-mouse and anti-human secondary antibodies were PE-conjugated.
For selected binders, full binding curves were generated on CB1 receptor by testing a range of concentrations. Three-fold serial dilutions from 1 μM to […] were prepared. Selectivity was determined by measuring binding to cells expressing 5HT2B or CB2, relative to binding to A156 (native human CB1 receptor expressing) or A56 (overexpressed—CB1 receptor with the T210A modification and ICL3 replacement with fusion partner) by flow cytometry. As shown in FIG. 2C and FIG. 2D, the expression of CB2 and 5HT2B was confirmed using mouse monoclonal anti-CB2 and P2C2 human IgG to confirm CB2 and 5HT2B expression, respectively. PE-conjugated anti-mouse (for detection of anti-CB2) and PE conjugated anti-human antibodies were used to detect CB2 and 5HT2B, respectively.
The binding affinity, cross-reactivity and specificity of humanized P1C4 antibodies were determined by flow cytometry with TRex CHO parental cells, TRex CHO A56 overexpressed CB1 cells (T210A/fusion partner), native human CB1 TRex CHO A156 cells, Trex parental (no CB1) cells, mouse CB1 cells, and human CB2 stable cells. […] After being washed with 200 μl of FACS buffer twice, cells were incubated with PE conjugated anti-human secondary antibody (Southern Biotech) for 30 minutes on ice. Cells were washed with 200 μl of FACS buffer twice and transferred to BD Falcon 5 ml tube and analyzed by flow cytometry (BD FACScalibur).
Binding selectivity and cross-reactivity of PA13R3-P1C4 and its humanized variants was also characterized by flow cytometry using TRex CHO cells stably transfected with the GPCRs of interest. Specifically, binding selectivity for CB1 over CB2 was determined. Cross reactivity to mouse CB1 was also determined. […] Cells were washed with 200 μL FACS buffer twice and analyzed by flow cytometry (Guava). Binding of purified IgG full concentration curves ranging from 1 μM to 1.3 nM was determined. […]

[4] = test system: TRex CHO A56 over-expressed CB1 (CB1 T210A/fusion partner); assay: Flow cytometry (FACS) binding to over-expressed CB1 cells; parameters: species or system human
Protocol: as §1, §2, §3, §4

[5] = target: A138 iCAPS (human CB1, ICL3 replaced with protein 1 sequence); assay: ELISA binding of IgG/Fab to CB1 iCAPS A138; settings: IgG and Fab ELISA, Table 8
Protocol: as §5, §6

| Molecule | binding to A156 (in words) [1] | EC50 [2] [nM] | cross-activity with human CB2 [3] | Kd TRexCHO Human CB2 ([3]; Table 10) | binding to A56 (in words) [4] | EC50 [5] [nM] |
| --- | --- | --- | --- | --- | --- | --- |
| B1 | bind to both A56 and A156 | 0.17 | do not have cross-activity | No binding | bind to both A56 and A156 | 0.17 |
| B2 | bind to both A56 and A156 | 0.27 | do not have cross-activity |  | bind to both A56 and A156 | 0.23 |
| B3 | bind to both A56 and A156 | 0.19 | do not have cross-activity |  | bind to both A56 and A156 | 0.201 |

— patent US11421026B2, “Antibodies that bind human cannabinoid 1 (CB1) receptor” (BIRD ROCK BIO, Inc., priority 2015, dated 2022)
